Earlier results, collected in patent publication US7754242B2, “Inhalable sustained therapeutic formulations” (Alkermes, Inc., priority 2002, dated 2010).
Like-named read-outs stand apart in the source and are kept apart here.

Legend:
[1] = healthy volunteers; inhaled
[2] = primates; dry powder formulation via pulmonary delivery
[3] = human subjects; dry powder formulation via pulmonary delivery

insulin: Insulin given by pulmonary delivery (dry powder formulation, inhaled), literature reports
Time to half-maximal action (glucose infusion rate) [1]: about 30 minutes | Time to peak insulin level [2]: about 30 minutes | Time to peak insulin level [3]: about 20 minutes
